In paper PMC549571:
Where two headings read alike, the source gives them in different places.

B1: CTRL (dsDNA)
DNA 1: GTGGATCCGTACTTAGGGTTAGGGTTAACACGAATTCGA
DNA 2: TCGAATTCGTGTTAACCCTAACCCTAAGTACGGATCCAC
B2: 8oxoG1-1 (dsDNA)
DNA 1: GTGGATCCGTACTTAGGGTTAGGGTTAACACGAATTCGA
DNA 2: TCGAATTCGTGTTAACCCTAACCCTAAGTACGGATCCAC
modifications: 8-oxoG at positions 17, 23 of strand 1
B3: 8oxoG1 (dsDNA)
DNA 1: GTGGATCCGTACTTAGGGTTAGGGTTAACACGAATTCGA
DNA 2: TCGAATTCGTGTTAACCCTAACCCTAAGTACGGATCCAC
modifications: 8-oxoG at position 17 of strand 1
B4: 8oxoG3 (dsDNA)
DNA 1: GTGGATCCGTACTTAGGGTTAGGGTTAACACGAATTCGA
DNA 2: TCGAATTCGTGTTAACCCTAACCCTAAGTACGGATCCAC
modifications: 8-oxoG at positions 16, 17, 18 of strand 1
B5: 8oxoG2 (dsDNA)
DNA 1: GTGGATCCGTACTTAGGGTTAGGGTTAACACGAATTCGA
DNA 2: TCGAATTCGTGTTAACCCTAACCCTAAGTACGGATCCAC
modifications: 8-oxoG at positions 17, 18 of strand 1
B6: non-telomeric mixed (MXT/MXB) (dsDNA)
DNA 1: GTGGATCCGTACGATGGTTTTAGGTGAACACGAATTCGA
DNA 2: TCGAATTCGTGTTCACCTAAAACCATCGTACGGATCCAC

What was measured:
Assay in all cases: EMSA
[1] = molecular target: T1, TRF2ΔN (Homo sapiens, UniProt Q15554 87-542)
[2] = molecular target: T2, TRF1 (Homo sapiens, UniProt P54274 1-439)
[3] = molecular target: T2, TRF1; remark: listed apart in the source
[4] = molecular target: T1, TRF2ΔN; remark: listed apart in the source
[5] = molecular target: T2, TRF1; remark: listed apart in the source

T2 sequence (P54274 whole entry): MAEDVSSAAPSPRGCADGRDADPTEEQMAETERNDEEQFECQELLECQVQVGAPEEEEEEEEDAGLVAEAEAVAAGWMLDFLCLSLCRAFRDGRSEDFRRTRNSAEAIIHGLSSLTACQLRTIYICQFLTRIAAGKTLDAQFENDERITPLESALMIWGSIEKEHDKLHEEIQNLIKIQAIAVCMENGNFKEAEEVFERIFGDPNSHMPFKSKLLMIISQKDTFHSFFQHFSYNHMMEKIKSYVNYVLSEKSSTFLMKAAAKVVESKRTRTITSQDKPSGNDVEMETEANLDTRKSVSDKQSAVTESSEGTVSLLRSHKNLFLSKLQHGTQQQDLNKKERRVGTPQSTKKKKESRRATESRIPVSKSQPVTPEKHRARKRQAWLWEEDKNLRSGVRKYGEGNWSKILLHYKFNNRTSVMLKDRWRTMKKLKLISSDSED
T1 sequence (Q15554 87-542, stated change not applied): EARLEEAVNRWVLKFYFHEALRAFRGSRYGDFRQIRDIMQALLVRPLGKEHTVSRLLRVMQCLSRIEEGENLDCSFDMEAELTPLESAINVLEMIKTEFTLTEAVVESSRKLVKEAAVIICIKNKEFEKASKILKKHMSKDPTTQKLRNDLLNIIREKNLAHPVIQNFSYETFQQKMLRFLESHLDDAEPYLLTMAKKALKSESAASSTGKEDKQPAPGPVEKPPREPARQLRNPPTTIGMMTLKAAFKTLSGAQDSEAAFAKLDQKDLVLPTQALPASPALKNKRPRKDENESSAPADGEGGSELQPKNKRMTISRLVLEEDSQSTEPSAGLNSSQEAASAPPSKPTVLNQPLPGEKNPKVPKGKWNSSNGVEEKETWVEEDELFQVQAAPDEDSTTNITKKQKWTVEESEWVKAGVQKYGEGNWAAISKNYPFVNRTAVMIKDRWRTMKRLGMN

| Binder | binding signal [1] [% bound at 100 nM TRF2ΔN] | binding signal [2] | further results |
| --- | --- | --- | --- |
| B1 | 55 | 61 ± 6 % bound at 25 nM TRF1 | – |
| B2 | – | – | binding signal [3]: 18 fold decrease in % bound vs control at 25 nM TRF1 |
| B3 | 11 | 31 ± 6 % bound at 25 nM TRF1 | – |
| B4 | – | 21 fold decrease in % bound vs control at 25 nM TRF1 | – |
| B5 | 17 | 29 ± 2 % bound at 25 nM TRF1 | – |
| B6 | – | – | binding result [4]: no binding; binding result [5]: no binding |
